{
  "source": "paper PMC7966745",
  "about": "“Elucidation of transient protein-protein interactions within carrier protein-dependent biosynthesis” (Communications Biology, 2021)",
  "molecules": {"B1": {"name": "octanoyl-AcpP (15N-C8-AcpP), E. coli acyl carrier protein (natural protein)", "chain": "STIEERVKKIIGEQLGVKQEEVTNNASFVEDLGADSLDTVELVMALEEEFDTEIPDEEAEKITTVQAAIDYINGHQA", "modifications": "octanoyl pantethenamide probe loaded as a 4'-phosphopantetheine analog (amide linked octanoyl) on S36; uniformly 15N labeled and perdeuterated", "notes": "Acyl carrier protein AcpP of E. coli; Grown on a His-tagged pET-22b vector; also called amide linked octanoyl AcpP; source: E. coli BL21 (DE3), M9 minimal media with 15N NH4Cl and D2O, purified; made apo with ACPH, then loaded with an octanoyl pantethenamide probe (CoaA, CoaD, CoaE, Sfp)"}, "B2": {"name": "octanoyl-AcpP (C8-AcpP), E. coli acyl carrier protein (natural protein)", "chain": "STIEERVKKIIGEQLGVKQEEVTNNASFVEDLGADSLDTVELVMALEEEFDTEIPDEEAEKITTVQAAIDYINGHQA", "modifications": "octanoyl pantethenamide probe loaded (stable C8 acyl analog); uniformly 15N labeled and perdeuterated", "notes": "acyl carrier protein AcpP, E. coli; PDB 2FAD is heptanoyl-AcpP, used for docking only; also called 15N-C8-AcpP; source: E. coli BL21 (DE3), M9 minimal media with 15N NH4Cl and D2O, purified; made apo with P. aeruginosa ACPH, then loaded with CoaA, CoaD, CoaE and Sfp"}, "B3": {"name": "FabF, elongating ketosynthase of E. coli fatty acid biosynthesis (enzyme)", "chain": "SKRRVVVTGLGMLSPVGNTVESTWKALLAGQSGISLIDHFDTSAYATKFAGLVKDFNCEDIISRKEQRKMDAFIQYGIVAGVQAMQDSGLEITEENATRIGAAIGSGIGGLGLIEENHTSLMNGGPRKISPFFVPSTIVNMVAGHLTIMYGLRGPSISIATACTSGVHNIGHAARIIAYGDADVMVAGGAEKASTPLGVGGFGAARALSTRNDNPQAASRPWDKERDGFVLGDGAGMLVLEEYEHAKKRGAKIYAELVGFGMSSDAYHMTSPPENGAGAALAMANALRDAGIEASQIGYVNAHGTSTPAGDKAEAQAVKTIFGEAASRVLVSSTKSMTGHLLGAAGAVESIYSILALRDQAVPPTINLDNPDEGCDLDFVPHEARQVSGMEYTLCNSFGFGGTNGSLIFKKI", "notes": "FabF ketosynthase (3-oxoacyl-ACP synthase 2), E. coli; also called KS; source: E. coli BL21 (DE3), purified (Ni-IMAC, Superdex 75)"}, "B4": {"name": "FabI, enoylreductase of E. coli fatty acid biosynthesis (enzyme)", "chain": "MGFLSGKRILVTGVASKLSIAYGIAQAMHREGAELAFTYQNDKLKGRVEEFAAQLGSDIVLQCDVAEDASIDTMFAELGKVWPKFDGFVHSIGFAPGDQLDGDYVNAVTREGFKIAHDISSYSFVAMAKACRSMLNPGSALLTLSYLGAERAIPNYNVMGLAKASLEANVRYMANAMGPEGVRVNAISAGPIRTLAASGIKDFRKMLAHCEAVTPIRRTVTIEDVGNSAAFLCSDLSAGISGEVVHVDGGFSIAAMNELELK", "notes": "FabI enoyl-ACP reductase, E. coli; titrated with 0.5 mM NAD+ in the buffer; also called ER; source: E. coli BL21 (DE3), purified (Ni-IMAC, Superdex 75)"}, "B5": {"name": "FabI, E. coli enoylreductase (enzyme)", "chain": "MGFLSGKRILVTGVASKLSIAYGIAQAMHREGAELAFTYQNDKLKGRVEEFAAQLGSDIVLQCDVAEDASIDTMFAELGKVWPKFDGFVHSIGFAPGDQLDGDYVNAVTREGFKIAHDISSYSFVAMAKACRSMLNPGSALLTLSYLGAERAIPNYNVMGLAKASLEANVRYMANAMGPEGVRVNAISAGPIRTLAASGIKDFRKMLAHCEAVTPIRRTVTIEDVGNSAAFLCSDLSAGISGEVVHVDGGFSIAAMNELELK", "notes": "enoylreductase FabI (enoyl-ACP reductase [NADH]), E. coli; Titrated with 0.5 mM NAD+ present; also called ER; source: E. coli BL21 (DE3), purified (Ni-IMAC, Superdex 75)"}, "B6": {"name": "FabG, E. coli ketoreductase (enzyme)", "chain": "MNFEGKIALVTGASRGIGRAIAETLAARGAKVIGTATSENGAQAISDYLGANGKGLMLNVTDPASIESVLEKIRAEFGEVDILVNNAGITRDNLLMRMKDEEWNDIIETNLSSVFRLSKAVMRAMMKKRHGRIITIGSVVGTMGNGGQANYAAAKAGLIGFSKSLAREVASRGITVNVVAPGFIETDMTRALSDDQRAGILAQVPAGRLGGAQEIANAVAFLASDEAAYITGETLHVNGGMYMV", "notes": "ketoreductase FabG (3-oxoacyl-ACP reductase), E. coli; Titrated with 0.5 mM NAD+ present; also called KR; source: E. coli BL21 (DE3), purified (Ni-IMAC, Superdex 75)"}},
  "key": {"FabB (Escherichia coli)": {"target": "FabB (Escherichia coli) (UniProt P0A953)", "sequence (P0A953 whole entry)": "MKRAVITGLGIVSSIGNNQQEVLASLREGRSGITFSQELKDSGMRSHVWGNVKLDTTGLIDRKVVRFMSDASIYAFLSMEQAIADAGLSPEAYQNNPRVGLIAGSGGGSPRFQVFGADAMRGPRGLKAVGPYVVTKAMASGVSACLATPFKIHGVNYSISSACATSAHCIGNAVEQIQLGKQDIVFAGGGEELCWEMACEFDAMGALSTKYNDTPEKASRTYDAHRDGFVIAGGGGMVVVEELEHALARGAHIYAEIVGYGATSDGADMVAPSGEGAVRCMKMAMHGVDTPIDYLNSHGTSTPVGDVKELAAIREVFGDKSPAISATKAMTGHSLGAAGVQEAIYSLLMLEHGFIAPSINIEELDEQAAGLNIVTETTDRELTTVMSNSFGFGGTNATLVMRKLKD", "assay": "NMR titration (TITAN)", "conditions": "cited from earlier work"}, "[1]": {"target": "B4", "assay": "NMR titration; 1H-15N HSQC of perdeuterated 15N-C8-AcpP with increasing unlabeled partner protein, five points; TITAN 2D lineshape analysis, flexible stoichiometry model, error from 300 bootstrap steps; 37 °C, 10 mM potassium phosphate pH 7.4, 0.5 mM TCEP, 0.5 mM NAD+, 0.1% NaN3", "conditions": "both partners purified"}, "[2]": {"target": "T1, TesA, E. coli thioesterase (E. coli, UniProt P0ADA1 27-208)", "T1 construct": "TesA thioesterase 1, E. coli; the natural protein is periplasmic; source: E. coli BL21 (DE3), purified (Ni-IMAC, Superdex 75)", "T1 sequence": "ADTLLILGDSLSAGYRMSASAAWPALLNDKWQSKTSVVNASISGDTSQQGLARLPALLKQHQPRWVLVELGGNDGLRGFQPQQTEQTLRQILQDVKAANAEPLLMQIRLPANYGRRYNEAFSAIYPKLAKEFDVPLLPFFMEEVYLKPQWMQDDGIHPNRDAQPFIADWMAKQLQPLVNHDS", "assay": "NMR titration; 1H-15N HSQC of perdeuterated 15N-C8-AcpP with increasing unlabeled partner protein, five points; TITAN 2D lineshape analysis, flexible stoichiometry model, error from 300 bootstrap steps; 37 °C, 10 mM potassium phosphate pH 7.4, 0.5 mM TCEP, 0.1% NaN3", "conditions": "both partners purified"}, "[3]": {"target": "B3", "assay": "NMR titration; 1H-15N HSQC of perdeuterated 15N-C8-AcpP with increasing unlabeled partner protein, five points; TITAN 2D lineshape analysis, flexible stoichiometry model, error from 300 bootstrap steps; 37 °C, 10 mM potassium phosphate pH 7.4, 0.5 mM TCEP, 0.1% NaN3", "conditions": "both partners purified"}, "[4]": {"target": "T2, FabF, E. coli elongating ketosynthase (E. coli, UniProt P0AAI5 2-413)", "T2 construct": "ketosynthase FabF (3-oxoacyl-ACP synthase 2), E. coli; also called KS; source: E. coli BL21 (DE3), purified (Ni-IMAC, Superdex 75)", "T2 sequence": "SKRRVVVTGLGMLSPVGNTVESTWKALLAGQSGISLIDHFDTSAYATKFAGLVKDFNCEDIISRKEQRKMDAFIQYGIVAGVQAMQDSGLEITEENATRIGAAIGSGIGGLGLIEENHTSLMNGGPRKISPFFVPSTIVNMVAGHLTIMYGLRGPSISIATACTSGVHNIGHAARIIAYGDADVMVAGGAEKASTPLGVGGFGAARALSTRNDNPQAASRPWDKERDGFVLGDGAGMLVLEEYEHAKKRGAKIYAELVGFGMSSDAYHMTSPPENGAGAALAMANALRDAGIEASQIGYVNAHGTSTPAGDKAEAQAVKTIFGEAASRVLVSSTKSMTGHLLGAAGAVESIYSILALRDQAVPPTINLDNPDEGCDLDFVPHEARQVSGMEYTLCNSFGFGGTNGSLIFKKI", "assay": "NMR titration; 1H-15N HSQC of 15N, perdeuterated C8-AcpP titrated with unlabeled partner, at least five points; 37 °C; 10 mM potassium phosphate pH 7.4, 0.5 mM TCEP, 0.1% NaN3; TITAN 2D lineshape analysis, flexible stoichiometry model", "conditions": "both partners purified"}, "[5]": {"target": "T3, TesA, E. coli thioesterase (E. coli, UniProt P0ADA1 27-208)", "T3 construct": "thioesterase TesA (thioesterase 1), E. coli; source: E. coli BL21 (DE3), purified (Ni-IMAC, Superdex 75)", "T3 sequence": "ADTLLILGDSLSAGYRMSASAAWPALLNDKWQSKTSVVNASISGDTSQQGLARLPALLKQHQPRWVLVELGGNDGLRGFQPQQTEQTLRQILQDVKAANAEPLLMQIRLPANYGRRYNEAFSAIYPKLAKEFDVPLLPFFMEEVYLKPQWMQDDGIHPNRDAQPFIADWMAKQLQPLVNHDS", "assay": "NMR titration; 1H-15N HSQC of 15N, perdeuterated C8-AcpP titrated with unlabeled partner, at least five points; 37 °C; 10 mM potassium phosphate pH 7.4, 0.5 mM TCEP, 0.1% NaN3; TITAN 2D lineshape analysis, flexible stoichiometry model", "conditions": "both partners purified"}, "[6]": {"target": "B5", "assay": "NMR titration; 1H-15N HSQC of 15N, perdeuterated C8-AcpP titrated with unlabeled partner, at least five points; 37 °C; 10 mM potassium phosphate pH 7.4, 0.5 mM TCEP, 0.5 mM NAD+, 0.1% NaN3; TITAN 2D lineshape analysis, flexible stoichiometry model", "conditions": "both partners purified"}, "[7]": {"target": "B6", "assay": "NMR titration; 1H-15N HSQC of 15N, perdeuterated C8-AcpP titrated with unlabeled partner, at least five points; 37 °C; 10 mM potassium phosphate pH 7.4, 0.5 mM TCEP, 0.5 mM NAD+, 0.1% NaN3; TITAN 2D lineshape analysis, flexible stoichiometry model", "conditions": "both partners purified"}, "[8]": {"target": "B1", "assay": "NMR titration; 1H-15N HSQC of perdeuterated 15N-C8-AcpP with increasing unlabeled partner protein, five points; TITAN 2D lineshape analysis, flexible stoichiometry model, error from 300 bootstrap steps; 37 °C, 10 mM potassium phosphate pH 7.4, 0.5 mM TCEP, 0.1% NaN3", "conditions": "both partners purified"}, "[9]": {"target": "B1", "assay": "NMR titration; 1H-15N HSQC of perdeuterated 15N-C8-AcpP with increasing unlabeled partner protein, five points; TITAN 2D lineshape analysis, flexible stoichiometry model, error from 300 bootstrap steps; 37 °C, 10 mM potassium phosphate pH 7.4, 0.5 mM TCEP, 0.5 mM NAD+, 0.1% NaN3", "conditions": "both partners purified"}, "[10]": {"target": "B2", "assay": "NMR titration; 1H-15N HSQC of 15N, perdeuterated C8-AcpP titrated with unlabeled partner, at least five points; 37 °C; 10 mM potassium phosphate pH 7.4, 0.5 mM TCEP, 0.5 mM NAD+, 0.1% NaN3; TITAN 2D lineshape analysis, flexible stoichiometry model", "conditions": "both partners purified"}},
  "data": [
    {"molecule": "AcpP (from UniProt P0A6A8)", "values": [
      {"measurement": "Kd", "setting": "FabB (Escherichia coli)", "value": 37.6, "unit": "µM"}
    ]},
    {"molecule": "B1", "values": [
      {"measurement": "Kd", "setting": "[1]", "value": 1600, "unit": "nM"},
      {"measurement": "koff", "setting": "[1]", "value": 6360, "unit": "s⁻¹"},
      {"measurement": "Kd", "setting": "[2]", "value": 13, "unit": "µM"},
      {"measurement": "koff", "setting": "[2]", "value": 9750, "unit": "s⁻¹"},
      {"measurement": "Kd", "setting": "[3]", "value": 6.9, "unit": "µM"},
      {"measurement": "koff", "setting": "[3]", "value": 3350, "unit": "s⁻¹"}
    ]},
    {"molecule": "B2", "values": [
      {"measurement": "Kd", "setting": "[4]", "value": 8.3, "unit": "µM"},
      {"measurement": "koff", "setting": "[4]", "value": 3510, "unit": "s⁻¹"},
      {"measurement": "Kd", "setting": "[5]", "value": 12.5, "unit": "µM"},
      {"measurement": "koff", "setting": "[5]", "value": 9720, "unit": "s⁻¹"},
      {"measurement": "Kd", "setting": "[6]", "value": 1700, "unit": "nM"},
      {"measurement": "koff", "setting": "[6]", "value": 8500, "unit": "s⁻¹"},
      {"measurement": "Kd", "setting": "[7]", "value": 52.3, "unit": "µM"},
      {"measurement": "koff", "setting": "[7]", "value": 3560, "unit": "s⁻¹"}
    ]},
    {"molecule": "B3", "values": [
      {"measurement": "stoichiometry N", "setting": "[8]", "value": 1.3}
    ]},
    {"molecule": "B4", "values": [
      {"measurement": "stoichiometry N", "setting": "[9]", "value": 1.2}
    ]},
    {"molecule": "B5", "values": [
      {"measurement": "stoichiometry N", "setting": "[10]", "value": "~1"}
    ]},
    {"molecule": "FabG, ketoreductase of E. coli fatty acid biosynthesis (enzyme, FabG 3-oxoacyl-ACP reductase, E. coli; titrated with 0.5 mM NAD+ in the buffer; also called KR; source: E. coli BL21 (DE3), purified (Ni-IMAC, Superdex 75)) MNFEGKIALVTGASRGIGRAIAETLAARGAKVIGTATSENGAQAISDYLGANGKGLMLNVTDPASIESVLEKIRAEFGEVDILVNNAGITRDNLLMRMKDEEWNDIIETNLSSVFRLSKAVMRAMMKKRHGRIITIGSVVGTMGNGGQANYAAAKAGLIGFSKSLAREVASRGITVNVVAPGFIETDMTRALSDDQRAGILAQVPAGRLGGAQEIANAVAFLASDEAAYITGETLHVNGGMYMV", "values": [
      {"measurement": "stoichiometry N", "setting": "[9]", "value": 2.2}
    ]},
    {"molecule": "B6", "values": [
      {"measurement": "stoichiometry N", "setting": "[10]", "value": 2}
    ]}
  ]
}
